± gives the standard deviation.

This is an account of results in the supplement of paper PMC10567573.

The nature of this data set: protein stability index of a GFP-peptide fusion (GPS, HEK-293T) (PSI 1-6); higher = more stable. The note with it: c terminus: a fixed tail appended.
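Note: 24-mer peptide tiles fused after GFP, lentivirally expressed, FACS-sorted into six equal bins by GFP/DsRed ratio, decoded by Illumina sequencing, PSI is the read-weighted mean bin number.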

QSMSEEEREKVTPLMVKGFRDAAE [SEPHS2]: the protein stability index is 5.01 ± 0.27 (treatment: DMSO) and 4.88 ± 0.24 (treatment: MLN4924 1 uM, 8 h). In the same order, the values of QSSGKVMYFSSLFPYVVLACFLVR [SLC6A17] are 2.6 ± 0.76 and 2.41 ± 0.24. In the same order, the values of QSVSYSKLLSVIVWMLMLLLAVPN [P2RY14] are 3.24 ± 0.27 and 3.17 ± 0.49. As to QVDVGDVNDNAPEVLLASLANPVL [PCDHGC5], the protein stability index runs as follows: (treatment: DMSO) 4.07 ± 0.28; (treatment: MLN4924 1 uM, 8 h) 4.21 ± 0.31. In the same order, the values of QYVTFLRSFSDKQKISLLHSCTCV [ALG2] are 3.1 ± 0.51 and 2.69 ± 0.48. In the same order, the values of RAPACSPEAAAAQLRATAGSLILP [FCHO1] are 3.12 ± 0.38 and 3.15 ± 0.34. The corresponding values for RARDSPEPGAGLGIGDMAFEGDMG [PSD2] are 4.73 ± 0.13 and 4.91 ± 0.15. For RARRTEISKNSEKKMESEEDSNWE [GOLPH3L], the protein stability index runs as follows: (treatment: DMSO) 5.43 ± 0.49; (treatment: MLN4924 1 uM, 8 h) 5.35 ± 0.44.

Turning to RCIGVTKPIFHSTKITSKHVKMML [PTGFR], the protein stability index is 2.13 ± 0.27 (treatment: DMSO) and 2.15 ± 0.28 (treatment: MLN4924 1 uM, 8 h).

As to RDFDNNTPLHIAAQNNCPAIMNAL [FEM1A], the protein stability index came out at 3.36 ± 0.3 (treatment: DMSO) and 3.46 ± 0.41 (treatment: MLN4924 1 uM, 8 h). On to RDKNWQTPLHVAAANKAVKCAEVI [ANKRD44], for which the protein stability index runs as follows: (treatment: DMSO) 3.69 ± 0.38; (treatment: MLN4924 1 uM, 8 h) 3.7 ± 0.19. In the same order, the values of RDLTQEQTEKLLQFQDLTGIESMD [FAF2] are 5.04 ± 0.11 and 5.05 ± 0.16.

As for RDNAELEKLIQERSQQQEPLLCPS [KRT34], the protein stability index runs as follows: (treatment: DMSO) 4.94 ± 0.13; (treatment: MLN4924 1 uM, 8 h) 4.87 ± 0.27. In the same order, the values of RDPQAVKERALSAPWLSLFPPEGN [ZNF263] are 3.06 ± 0.27 and 3.14 ± 0.33. The corresponding values for REDQLDTVLAVLEDSSRDIREALH [INTS4] are 4.21 ± 0.36 and 4.38 ± 0.34. RELREVRRVPPRFSIPPTNHEIMP [PTPRD] displayed a protein stability index (treatment: DMSO) of 3.74 ± 0.093 and a protein stability index (treatment: MLN4924 1 uM, 8 h) of 3.88 ± 0.14. Take RESFTSRQKTSGPSVIQEIHQESG [C10orf62]: the protein stability index is, setting by setting: (treatment: DMSO) 4.94 ± 0.099; (treatment: MLN4924 1 uM, 8 h) 5.02 ± 0.24. The corresponding values for RFCCCVAVIYLGYCFCGWIVLGPY [MCOLN1] are 3.41 ± 0.26 and 3.28 ± 0.48. On to RGENVVLLGEIDLEKESDTPLQQV [LSM1], for which the protein stability index came out at 4.96 ± 0.27 (treatment: DMSO) and 4.79 ± 0.18 (treatment: MLN4924 1 uM, 8 h).

For RGKNKMAAQNCRKRKLDTILNLER [NFE2L1], the protein stability index reads like this: (treatment: DMSO) 3.57 ± 0.33; (treatment: MLN4924 1 uM, 8 h) 3.63 ± 0.24. In the case of RGLPLLKTDFGSCLLQPPSCPNGM [DLC1], the protein stability index turned out to be 2.69 ± 0.22 (treatment: DMSO) and 2.67 ± 0.41 (treatment: MLN4924 1 uM, 8 h). In the same order, the values of RHCDDDGRTENGALAPKQELPSAL [ZNF24] are 5.25 ± 0.22 and 5.15 ± 0.21.

In the case of RHLAHSMLQRAIAYQHSGHLESKD [C10orf62], the protein stability index by setting is: (treatment: DMSO) 3.91 ± 0.24; (treatment: MLN4924 1 uM, 8 h) 3.92 ± 0.21. For RIGEATKPDGTVEQIGHILVSWLP [NET1], the protein stability index worked out at 2.68 ± 0.29 (treatment: DMSO) and 2.56 ± 0.24 (treatment: MLN4924 1 uM, 8 h). Take RKLNSRLFVIRGQPADVFPRLFKE [CRY1]: the protein stability index runs as follows: (treatment: DMSO) 2.27 ± 0.38; (treatment: MLN4924 1 uM, 8 h) 2.09 ± 0.39.

Take RKLSLKGHNDWVMDVAISNNKKWI [WDR88]: the protein stability index is 2.69 ± 0.42 (treatment: DMSO) and 2.39 ± 0.29 (treatment: MLN4924 1 uM, 8 h). For RKPKVIECSYTSADGQRHHSKLLV [DHCR7], the protein stability index is 2.72 ± 0.13 (treatment: DMSO) and 2.93 ± 0.28 (treatment: MLN4924 1 uM, 8 h). Take RKVAGMAKPNMIISVNGDVITIKS [FABP4]: the protein stability index runs as follows: (treatment: DMSO) 2.37 ± 0.66; (treatment: MLN4924 1 uM, 8 h) 2.43 ± 0.26. In the same order, the values of RLCFFPFVENGHSESSGQTHLEGD [CFHR2] are 4.01 ± 0.099 and 4.37 ± 0.15.

In the case of RLEQEIATYRSLLEGQDAKMIGFP [KRT13], the protein stability index (treatment: DMSO) worked out at 3.06 ± 0.1 and the protein stability index (treatment: MLN4924 1 uM, 8 h) worked out at 3.36 ± 0.34. In the same order, the values of RLFQVVGKTDDTLALLNLACMMTI [TMEM175] are 2.92 ± 0.53 and 2.65 ± 0.56. In the same order, the values of RLIATKNPEEIRGGGLLKYSNLLV [TENT5C] are 2.44 ± 0.35 and 2.26 ± 0.26. The corresponding values for RLRPLTLSTPKPLVDFCNKPILLH [GMPPB] are 2.31 ± 0.14 and 2.46 ± 0.51. In the case of RMQVLKRQVQSLMVHQRKLEAELL [SMARCE1], the protein stability index by setting is: (treatment: DMSO) 2.17 ± 0.27; (treatment: MLN4924 1 uM, 8 h) 2.6 ± 0.45. With RQEAIYEMSRGEQDLIEDLKLARK [NET1], the protein stability index reads like this: (treatment: DMSO) 4.69 ± 0.18; (treatment: MLN4924 1 uM, 8 h) 4.79 ± 0.099. Regarding RQTTGLMEYCLEVIKENDPSGFLQ [TRIM9], the protein stability index turned out to be 3.11 ± 0.24 (treatment: DMSO) and 3.05 ± 0.34 (treatment: MLN4924 1 uM, 8 h). In the same order, the values of RQWPTKSQTDRGASAGKRRCFWLG [SDE2] are 2.9 ± 0.24 and 3.19 ± 0.58. RRDPSIPIYGLRQSILLNTRLQDC [C22orf31]: the protein stability index by setting is: (treatment: DMSO) 2.74 ± 0.55; (treatment: MLN4924 1 uM, 8 h) 2.37 ± 0.31. In the same order, the values of RRIHSLPQKLLGCSPALKRSHSDS [CDC25A] are 4.89 ± 0.29 and 5.21 ± 0.078. In the same order, the values of RSEQSVKLRRQVIQVVLNGMESYQ [ZER1] are 2.41 ± 0.13 and 2.32 ± 0.18. In the case of RSQSSIVPEEEQAANKGEEKKDDE [SMARCE1], the protein stability index is 5.63 ± 0.25 (treatment: DMSO) and 5.68 ± 0.14 (treatment: MLN4924 1 uM, 8 h).

Take RSRDSNSGPEEPLLEEEEKQWGPL [RTN2]: the protein stability index is, setting by setting: (treatment: DMSO) 5.05 ± 0.53; (treatment: MLN4924 1 uM, 8 h) 5.45 ± 0.53. With RTLPNASTVDNIRSIFGNAVSREL [MLH1], the protein stability index by setting is: (treatment: DMSO) 3.55 ± 0.12; (treatment: MLN4924 1 uM, 8 h) 3.54 ± 0.17. Sequence RVAIAHYQDDPDLRFLLDQVQLGL [TSPAN10] showed a protein stability index (treatment: DMSO) of 2.28 ± 0.25 and a protein stability index (treatment: MLN4924 1 uM, 8 h) of 2.36 ± 0.25. With RVEESGSKKEGKRQGPKEPPRKSG [PBXIP1], the protein stability index by setting is: (treatment: DMSO) 5.33 ± 0.17; (treatment: MLN4924 1 uM, 8 h) 5.33 ± 0.48. In the same order, the values of RVKLTKRSGHTQTDYINASFMDGY [PTPN9] are 2.75 ± 0.14 and 2.87 ± 0.27.

RVTTEQYQKAAEEVEAKFKRYESH [CHCHD3]: the protein stability index reads like this: (treatment: DMSO) 4.66 ± 0.14; (treatment: MLN4924 1 uM, 8 h) 4.7 ± 0.12. The corresponding values for RYCDSILREMLSKKHAAYAWPFYK [BRD3] are 2.07 ± 0.48 and 2.02 ± 0.26. Consider RYVLKAGQTVTIWAANAGVTASPP [LMNB1], for which the protein stability index by setting is: (treatment: DMSO) 3.62 ± 0.27; (treatment: MLN4924 1 uM, 8 h) 3.49 ± 0.24. Turning to SAIYKWITDNFCYFRHADPTWQNS [FOXJ1], under “treatment: MLN4924 1 uM, 8 h”, the protein stability index is 2.57 ± 0.4. As to SAPLQGAVPPTSSVPPVAGAPSVG [SNAP91], the protein stability index runs as follows: (treatment: DMSO) 4.91 ± 0.19; (treatment: MLN4924 1 uM, 8 h) 4.99 ± 0.081. In the same order, the values of SARYLEAALRLHRLLRDSEAFCHA [P3H4] are 2.51 ± 0.23 and 2.07 ± 0.2. The corresponding values for SATLVGFTVGSVLGQILVSVAGWS [SLC19A2] are 3.13 ± 0.21 and 3.23 ± 0.89.

Sequence SAVVGDVLVLTKPLGTQVAVNAHQ [SEPHS2] showed a protein stability index (treatment: DMSO) of 2.95 ± 0.3 and a protein stability index (treatment: MLN4924 1 uM, 8 h) of 3.1 ± 0.31. The corresponding values for SAWKTVACGGTRDQLFMQEKARQL [MYBL2] are 3.21 ± 0.33 and 3.33 ± 0.28. The corresponding values for SDGTDEPESKEPVEKEEEPDPEPP [SMG5] are 5.67 ± 0.23 and 5.62 ± 0.18. In the same order, the values of SDPQTVAGAFGYFQQDTKGLVDFR [LPCAT4] are 3.68 ± 0.41 and 3.71 ± 0.29.

In the case of SDSGDGVYAGRPLSVIQMVAFLEQ [FBXO34], the protein stability index (treatment: DMSO) turned out to be 2.92 ± 0.15 and the protein stability index (treatment: MLN4924 1 uM, 8 h) stood at 3.02 ± 0.34.

With SDVVPEKERPLVIGHFNTASGVGF [MFSD9], the protein stability index (treatment: DMSO) came to 3.49 ± 0.26 and the protein stability index (treatment: MLN4924 1 uM, 8 h) stood at 3.52 ± 0.25. The corresponding values for SEDNTSFDRKKKSISLMYGGSKRK [SLA] are 4.66 ± 0.26 and 4.91 ± 0.27. Turning to SEDTLTIHGLPTEGYQALYHAVVE [C22orf31], the protein stability index came out at 3.19 ± 0.27 (treatment: DMSO) and 3.24 ± 0.36 (treatment: MLN4924 1 uM, 8 h). For the sequence SETGSTGALETRSLKDHKVSFLRS [C2CD2L], the protein stability index stood at 4.48 ± 0.29 (treatment: DMSO) and 4.46 ± 0.19 (treatment: MLN4924 1 uM, 8 h).

For SFMLQDRAKGLLGTTVTFDDLMGI [FEM1C], the protein stability index by setting is: (treatment: DMSO) 2.49 ± 0.24; (treatment: MLN4924 1 uM, 8 h) 2.66 ± 0.14. The corresponding values for SFNHNAHLTVHKRIHTGERPYMCK [ZNF8] are 2.76 ± 0.2 and 2.9 ± 0.22. Turning to SFPEPEAAQPMTKKRKVDGLSTEA [PRAME], the protein stability index is, setting by setting: (treatment: DMSO) 5.19 ± 0.3; (treatment: MLN4924 1 uM, 8 h) 5.16 ± 0.14. SFPLEWAPQNLTRWTFEKACHPFL [TOR1AIP2]: the protein stability index reads like this: (treatment: DMSO) 2.12 ± 0.093; (treatment: MLN4924 1 uM, 8 h) 2.31 ± 0.12. In the same order, the values of SFTLADVSLAVTLHRLKFLGFARR [GDAP1] are 2.5 ± 0.64 and 2.33 ± 0.33.

SFVESANSEVYLPNINKISMQAVL [RHOBTB1]: the protein stability index (treatment: DMSO) worked out at 2.43 ± 0.21 and the protein stability index (treatment: MLN4924 1 uM, 8 h) was found to be 2.2 ± 0.34. In the same order, the values of SGDRDENSFSLNSSISSSARRTTR [MAP2] are 5.05 ± 0.28 and 4.97 ± 0.32. The corresponding values for SGHKLYIFLFQDILVLTRPVTRNE [NET1] are 2.6 ± 0.56 and 2.41 ± 0.48.

For the sequence SGLVRRLWRSRVVPDREEGGSGGG [SMAD6], the protein stability index stood at 3.91 ± 0.6 (treatment: DMSO) and 4.33 ± 0.36 (treatment: MLN4924 1 uM, 8 h).

With SGMGGRAPVSRGRDSYGGPPRREP [RBMX], the protein stability index reads like this: (treatment: DMSO) 4.45 ± 0.28; (treatment: MLN4924 1 uM, 8 h) 4.61 ± 0.29. Turning to SGRLMGSPPVPGPSAALTTMQLFS [FBXO28], the protein stability index (treatment: DMSO) came to 2.71 ± 0.25 and the protein stability index (treatment: MLN4924 1 uM, 8 h) worked out at 2.63 ± 0.21.
